Earlier results as cited in paper PMC3006222.

Molecular target: Heat-labile enterotoxin B subunit (LTB) (UniProt P0CK94)
Experiment: not stated in this article (acid-induced pentamer disassembly, earlier work)
Conditions: pH 1.9

UniProt P0CK94, sequence (P0CK94 whole entry): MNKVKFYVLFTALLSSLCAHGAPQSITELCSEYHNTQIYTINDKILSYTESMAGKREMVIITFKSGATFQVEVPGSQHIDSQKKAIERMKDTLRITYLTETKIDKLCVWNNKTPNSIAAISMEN

In the case of Heat-labile enterotoxin B subunit (LTB), the threshold pH for acid disassembly of the pentamer is listed as 1.9 pH.
